Results on nine molecules are retold here after patent US20110294748A1 (Janssen / Centocor, published 2011).

Sequences and labels used below:
B1: PG-peptide fusion of clone 14 (protein G IgG domain with peptide SEQ ID NO: 10 at its C-terminus) (other)
chain: YKLILNGKTLKGETTTEAVDAATAEKVFKQYANDNGVDGEWTYDDATKTFTVTEVECDTPSITFSPGLEALFWNTCSP
notes: also called PG-peptide fusion clone 14
B2: PG-peptide fusion of clone 12 (protein G IgG domain with peptide SEQ ID NO: 8 at its C-terminus) (other)
chain: YKLILNGKTLKGETTTEAVDAATAEKVFKQYANDNGVDGEWTYDDATKTFTVTESNCPPLDMRLTELCVM
notes: also called PG-peptide fusion clone 12
B3: PG-peptide fusion of clone 11 (protein G IgG domain with peptide SEQ ID NO: 7 at its C-terminus) (other)
chain: YKLILNGKTLKGETTTEAVDAATAEKVFKQYANDNGVDGEWTYDDATKTFTVTEHTCFYPTLMPPELCFD
notes: also called PG-peptide fusion clone 11
B4: PG-peptide fusion of clone 16 (protein G IgG domain with peptide SEQ ID NO: 12 at its C-terminus) (other)
chain: YKLILNGKTLKGETTTEAVDAATAEKVFKQYANDNGVDGEWTYDDATKTFTVTEAGCPSPMPPVDPGFYSAIVQLCRE
notes: also called PG-peptide fusion clone 16
B5: peptide-Alkaline phosphatase-His6 fusion protein of clone 8 (other)
chain: PVCPSFCYDQYVCPTTPEMPVLENRAAQGDITTPGGARRLTGDQTAALRDSLSDKPAKNIILLIGDGMGDSEITAARNYAEGAGGFFKGIDALPLTGQYTHYALNKKTGKPDYVTDSAASATAWSTGVKTYNGALGVDIHEKDHPTILEMAKAAGLATGNVSTAELQGATPAALVAHVTSRKCYGPSATSEKCPGNALEKGGKGSITEQLLNARADVTLGGGAKTFAETATAGEWQGKTLREQAQTRGYQLVSDAASLNSVTEANQQKPLLGLFADGNMPVRWLGPKATYHGNIDKPAVTCTPNPQRNDSVPTLAQMTDKAIELLSKNEKGFFLQVEGASIDKQNHAANPCGQIGETVDLDEAVQRALEFAKKEGNTLVIVTADHAHASQIVAPDTKAPGLTQALNTKDGAVMVMSYGNSEEDSQEHTGSQLRIAAYGPHAANVVGLTDQTDLFYTMKAALGLKVPGGSGGGSGGGSGGGSGTPEMPVLENRAAQGDITTPGGARRLTGDQTAALRDSLSDKPAKNIILLIGDGMGDSEITAARNYAEGAGGFFKGIDALPLTGQYTHYALNKKTGKPDYVTDSAASATAWSTGVKTYNGALGVDIHEKDHPTILEMAKAAGLATGNVSTAELQGATPAALVAHVTSRKCYGPSATSEKCPGNALEKGGKGSITEQLLNARADVTLGGGAKTFAETATAGEWQGKTLREQAQTRGYQLVSDAASLNSVTEANQQKPLLGLFADGNMPVRWLGPKATYHGNIDKPAVTCTPNPQRNDSVPTLAQMTDKAIELLSKNEKGFFLQVEGASIDKQNHAANPCGQIGETVDLDEAVQRALEFAKKEGNTLVIVTADHAHASQIVAPDTKAPGLTQALNTKDGAVMVMSYGNSEEDSQEHTGSQLRIAAYGPHAANVVGLTDQTDLFYTMKAALGLKVPGNSHHHHHH
notes: Tested as bacterial culture supernatant; also called peptide-AP fusion clone 8
B6: peptide-Alkaline phosphatase-His6 fusion protein of clone 5 (other)
chain: TGCDFPELCRGCHPTPEMPVLENRAAQGDITTPGGARRLTGDQTAALRDSLSDKPAKNIILLIGDGMGDSEITAARNYAEGAGGFFKGIDALPLTGQYTHYALNKKTGKPDYVTDSAASATAWSTGVKTYNGALGVDIHEKDHPTILEMAKAAGLATGNVSTAELQGATPAALVAHVTSRKCYGPSATSEKCPGNALEKGGKGSITEQLLNARADVTLGGGAKTFAETATAGEWQGKTLREQAQTRGYQLVSDAASLNSVTEANQQKPLLGLFADGNMPVRWLGPKATYHGNIDKPAVTCTPNPQRNDSVPTLAQMTDKAIELLSKNEKGFFLQVEGASIDKQNHAANPCGQIGETVDLDEAVQRALEFAKKEGNTLVIVTADHAHASQIVAPDTKAPGLTQALNTKDGAVMVMSYGNSEEDSQEHTGSQLRIAAYGPHAANVVGLTDQTDLFYTMKAALGLKVPGGSGGGSGGGSGGGSGTPEMPVLENRAAQGDITTPGGARRLTGDQTAALRDSLSDKPAKNIILLIGDGMGDSEITAARNYAEGAGGFFKGIDALPLTGQYTHYALNKKTGKPDYVTDSAASATAWSTGVKTYNGALGVDIHEKDHPTILEMAKAAGLATGNVSTAELQGATPAALVAHVTSRKCYGPSATSEKCPGNALEKGGKGSITEQLLNARADVTLGGGAKTFAETATAGEWQGKTLREQAQTRGYQLVSDAASLNSVTEANQQKPLLGLFADGNMPVRWLGPKATYHGNIDKPAVTCTPNPQRNDSVPTLAQMTDKAIELLSKNEKGFFLQVEGASIDKQNHAANPCGQIGETVDLDEAVQRALEFAKKEGNTLVIVTADHAHASQIVAPDTKAPGLTQALNTKDGAVMVMSYGNSEEDSQEHTGSQLRIAAYGPHAANVVGLTDQTDLFYTMKAALGLKVPGNSHHHHHH
notes: Tested as bacterial culture supernatant; also called peptide-AP fusion clone 5
B7: peptide-Alkaline phosphatase-His6 fusion protein of clone 6 (other)
chain: AECEWPWLTLELCQSTPEMPVLENRAAQGDITTPGGARRLTGDQTAALRDSLSDKPAKNIILLIGDGMGDSEITAARNYAEGAGGFFKGIDALPLTGQYTHYALNKKTGKPDYVTDSAASATAWSTGVKTYNGALGVDIHEKDHPTILEMAKAAGLATGNVSTAELQGATPAALVAHVTSRKCYGPSATSEKCPGNALEKGGKGSITEQLLNARADVTLGGGAKTFAETATAGEWQGKTLREQAQTRGYQLVSDAASLNSVTEANQQKPLLGLFADGNMPVRWLGPKATYHGNIDKPAVTCTPNPQRNDSVPTLAQMTDKAIELLSKNEKGFFLQVEGASIDKQNHAANPCGQIGETVDLDEAVQRALEFAKKEGNTLVIVTADHAHASQIVAPDTKAPGLTQALNTKDGAVMVMSYGNSEEDSQEHTGSQLRIAAYGPHAANVVGLTDQTDLFYTMKAALGLKVPGGSGGGSGGGSGGGSGTPEMPVLENRAAQGDITTPGGARRLTGDQTAALRDSLSDKPAKNIILLIGDGMGDSEITAARNYAEGAGGFFKGIDALPLTGQYTHYALNKKTGKPDYVTDSAASATAWSTGVKTYNGALGVDIHEKDHPTILEMAKAAGLATGNVSTAELQGATPAALVAHVTSRKCYGPSATSEKCPGNALEKGGKGSITEQLLNARADVTLGGGAKTFAETATAGEWQGKTLREQAQTRGYQLVSDAASLNSVTEANQQKPLLGLFADGNMPVRWLGPKATYHGNIDKPAVTCTPNPQRNDSVPTLAQMTDKAIELLSKNEKGFFLQVEGASIDKQNHAANPCGQIGETVDLDEAVQRALEFAKKEGNTLVIVTADHAHASQIVAPDTKAPGLTQALNTKDGAVMVMSYGNSEEDSQEHTGSQLRIAAYGPHAANVVGLTDQTDLFYTMKAALGLKVPGNSHHHHHH
notes: Tested as bacterial culture supernatant; also called peptide-AP fusion clone 6
B8: peptide-Alkaline phosphatase-His6 fusion protein of clone 9 (other)
chain: FTCAVYSLSELDCRDTPEMPVLENRAAQGDITTPGGARRLTGDQTAALRDSLSDKPAKNIILLIGDGMGDSEITAARNYAEGAGGFFKGIDALPLTGQYTHYALNKKTGKPDYVTDSAASATAWSTGVKTYNGALGVDIHEKDHPTILEMAKAAGLATGNVSTAELQGATPAALVAHVTSRKCYGPSATSEKCPGNALEKGGKGSITEQLLNARADVTLGGGAKTFAETATAGEWQGKTLREQAQTRGYQLVSDAASLNSVTEANQQKPLLGLFADGNMPVRWLGPKATYHGNIDKPAVTCTPNPQRNDSVPTLAQMTDKAIELLSKNEKGFFLQVEGASIDKQNHAANPCGQIGETVDLDEAVQRALEFAKKEGNTLVIVTADHAHASQIVAPDTKAPGLTQALNTKDGAVMVMSYGNSEEDSQEHTGSQLRIAAYGPHAANVVGLTDQTDLFYTMKAALGLKVPGGSGGGSGGGSGGGSGTPEMPVLENRAAQGDITTPGGARRLTGDQTAALRDSLSDKPAKNIILLIGDGMGDSEITAARNYAEGAGGFFKGIDALPLTGQYTHYALNKKTGKPDYVTDSAASATAWSTGVKTYNGALGVDIHEKDHPTILEMAKAAGLATGNVSTAELQGATPAALVAHVTSRKCYGPSATSEKCPGNALEKGGKGSITEQLLNARADVTLGGGAKTFAETATAGEWQGKTLREQAQTRGYQLVSDAASLNSVTEANQQKPLLGLFADGNMPVRWLGPKATYHGNIDKPAVTCTPNPQRNDSVPTLAQMTDKAIELLSKNEKGFFLQVEGASIDKQNHAANPCGQIGETVDLDEAVQRALEFAKKEGNTLVIVTADHAHASQIVAPDTKAPGLTQALNTKDGAVMVMSYGNSEEDSQEHTGSQLRIAAYGPHAANVVGLTDQTDLFYTMKAALGLKVPGNSHHHHHH
notes: Tested as bacterial culture supernatant; also called peptide-AP fusion clone 9
B9: peptide-Alkaline phosphatase-His6 fusion protein of clone 11 (other)
chain: HTCFYPTLMPPELCFDTPEMPVLENRAAQGDITTPGGARRLTGDQTAALRDSLSDKPAKNIILLIGDGMGDSEITAARNYAEGAGGFFKGIDALPLTGQYTHYALNKKTGKPDYVTDSAASATAWSTGVKTYNGALGVDIHEKDHPTILEMAKAAGLATGNVSTAELQGATPAALVAHVTSRKCYGPSATSEKCPGNALEKGGKGSITEQLLNARADVTLGGGAKTFAETATAGEWQGKTLREQAQTRGYQLVSDAASLNSVTEANQQKPLLGLFADGNMPVRWLGPKATYHGNIDKPAVTCTPNPQRNDSVPTLAQMTDKAIELLSKNEKGFFLQVEGASIDKQNHAANPCGQIGETVDLDEAVQRALEFAKKEGNTLVIVTADHAHASQIVAPDTKAPGLTQALNTKDGAVMVMSYGNSEEDSQEHTGSQLRIAAYGPHAANVVGLTDQTDLFYTMKAALGLKVPGGSGGGSGGGSGGGSGTPEMPVLENRAAQGDITTPGGARRLTGDQTAALRDSLSDKPAKNIILLIGDGMGDSEITAARNYAEGAGGFFKGIDALPLTGQYTHYALNKKTGKPDYVTDSAASATAWSTGVKTYNGALGVDIHEKDHPTILEMAKAAGLATGNVSTAELQGATPAALVAHVTSRKCYGPSATSEKCPGNALEKGGKGSITEQLLNARADVTLGGGAKTFAETATAGEWQGKTLREQAQTRGYQLVSDAASLNSVTEANQQKPLLGLFADGNMPVRWLGPKATYHGNIDKPAVTCTPNPQRNDSVPTLAQMTDKAIELLSKNEKGFFLQVEGASIDKQNHAANPCGQIGETVDLDEAVQRALEFAKKEGNTLVIVTADHAHASQIVAPDTKAPGLTQALNTKDGAVMVMSYGNSEEDSQEHTGSQLRIAAYGPHAANVVGLTDQTDLFYTMKAALGLKVPGNSHHHHHH
notes: Tested as bacterial culture supernatant; also called peptide-AP fusion clone 11

In the first assay the target is T1, soluble IGF1R (sIGF1R), extracellular domain of human insulin-like growth factor 1 receptor, carboxy-terminal … (human, UniProt P08069 31-932).
T1 construct: Bought from R&D Systems; GenBank NP-000866 is printed for the whole receptor; also called IFG1R
The assay can be described thus: ELISA, serially diluted PG-peptide fusion on coated sIGF1R, one site binding fit. How it is done:
Relative binding affinities of the PG-peptide fusions for sIGF1R were measured using ELISA. The Kds were determined using GraphPad Prism 4 software with a one site binding equation. 100 μl of 2 μg/ml sIGF1R(R&D Systems, Minneapolis, Minn.) in Dulbecco's Phosphate Buffer Saline (DPBS (−/−)) was coated onto a 96 well Black Maxisorp plates (Nunc, Rochester, N.Y.) overnight at 4° C. The plates were washed with TBST and the wells blocked with 200 μl/well Starting Block T20 (TBS) (Pierce, Rockford, Ill.) for 1 hr, room temperature with 300 rpm shaking. 75 μl/well of purified, serially diluted PG-peptide fusions, starting concentration 40 μM, was added into the wells and incubated for 1 h, room temperature with 300 rpm mixing; the volume was brought up to 100 μl with Starting Block T20. The plates were washed 3× with TBST and then probed with 100 μl/well Peroxidase labeled-Rabbit antibody (1:5000) (Rockland, Gilbertsville, Pa.), washed, and the signal was detected using 100 μl/well POD substrate (Roche, Indianapolis, Ind.). Chemiluminescence was detected using a Molecular Devices M5 plate reader.
Molecule B1 had an EC50 of 850 nM.

B2 registered an EC50 of 1800 nM.

As to B3, the response was half-maximal at 1200 nM (EC50).

In turn, B4 returned an EC50 of 8200 nM.

Another assay deals with T1, soluble IGF1R (sIGF1R), extracellular …. The assay can be described thus: ELISA, culture supernatant on 2 µg/ml coated sIGF1R, Attophos detection. How it is done: The binding of purified peptide-AP fusion proteins to sIGF1R was assessed using ELISA against immobilized sIGF1R. Briefly, bacteria transformed with each peptide-AP fusion expression vector were grown overnight and the following day the cultures were clarified by centrifugation at 4,500 rpm, 4° C. The supernatants were collected and 75 μl of each supernatant was assayed for binding to 2 μg/ml sIGF1R immobilized on ELISA plates. The bound peptides were detected using the Attophos Substrate (Roche, Indianapolis, Ind.) following the manufacturer's recommendation and read using a Molecular Devices M5 plate reader.
In the case of B5, the binding result is on record as “binds”.

For the molecule B6, the binding result is recorded as “binds”.

For B7, the binding result is “binds”.

As to B8, the binding result was “binds”.

For the molecule B9, the binding result is reported as “binds”.
